Assay results reported in patent US20240352105A1, “COMPOSITIONS AND METHODS FOR NEUTRALIZING ANTIGENS” (PACAGEN, INC, priority 2023, published 2024).
No end group written: not given here.

T1: recombinant His-tagged Der p1 (dust mite, UniProt P08176 99-320, limits assumed)
T1 construct: Recombinant His-tagged protein made by the applicant; also called Der p1-His; Der pl; not shown: His tag
T1 sequence (looked up): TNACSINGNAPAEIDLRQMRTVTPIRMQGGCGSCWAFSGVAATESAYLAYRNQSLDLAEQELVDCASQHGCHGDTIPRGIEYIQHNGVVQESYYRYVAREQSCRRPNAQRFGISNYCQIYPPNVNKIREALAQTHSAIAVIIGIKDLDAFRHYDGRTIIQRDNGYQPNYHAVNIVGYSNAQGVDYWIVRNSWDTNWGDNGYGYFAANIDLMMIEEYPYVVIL


Key:
[1] = biological target: T1, recombinant His-tagged Der p1; assay: ELISA, Der p1 on plate, biotinylated peptide at 0.370, duplicate 2
Experimental: (§1) An ELISA was used to validate identified peptides. Der p1 was bound to the bottom of a plate. Different concentrations of the chosen (biotinylated) peptides were added and then washed. Then, HRP-streptavidin (which binds to the biotin) was added and an OD at 450 nm is measured. Duplicate measurements are separated by commas.

[2] = biological target: T1, recombinant His-tagged Der p1; assay: ELISA, Der p1 on plate, biotinylated peptide at 0.123, duplicate 2
Experimental: as §1

[3] = biological target: T1, recombinant His-tagged Der p1; assay: ELISA, Der p1 on plate, biotinylated peptide at 0.041, duplicate 1
Experimental: as §1

[4] = biological target: T1, recombinant His-tagged Der p1; assay: ELISA, Der p1 on plate, biotinylated peptide at 1.111, duplicate 1
Experimental: as §1

[5] = biological target: T1, recombinant His-tagged Der p1; assay: ELISA, Der p1 on plate, biotinylated peptide at 10, duplicate 2
Experimental: as §1

[6] = biological target: T1, recombinant His-tagged Der p1; assay: ELISA, Der p1 on plate, biotinylated peptide at 30, duplicate 2
Experimental: as §1

[7] = biological target: T1, recombinant His-tagged Der p1; assay: ELISA, Der p1 on plate, biotinylated peptide at 0.123, duplicate 1
Experimental: as §1

[8] = biological target: T1, recombinant His-tagged Der p1; assay: ELISA, Der p1 on plate, biotinylated peptide at 1.111, duplicate 2
Experimental: as §1

[9] = biological target: T1, recombinant His-tagged Der p1; assay: ELISA, Der p1 on plate, biotinylated peptide at 3.333, duplicate 1
Experimental: as §1

[10] = biological target: T1, recombinant His-tagged Der p1; assay: ELISA, Der p1 on plate, biotinylated peptide at 10, duplicate 1
Experimental: as §1

[11] = biological target: T1, recombinant His-tagged Der p1; assay: ELISA, Der p1 on plate, biotinylated peptide at 0.041, duplicate 2
Experimental: as §1

[12] = biological target: T1, recombinant His-tagged Der p1; assay: ELISA, Der p1 on plate, biotinylated peptide at 0.370, duplicate 1
Experimental: as §1

[13] = biological target: T1, recombinant His-tagged Der p1; assay: ELISA, Der p1 on plate, biotinylated peptide at 30, duplicate 1
Experimental: as §1

[14] = biological target: T1, recombinant His-tagged Der p1; assay: ELISA, Der p1 on plate, biotinylated peptide at 3.333, duplicate 2
Experimental: as §1

Fel D1 = biological target: T2, Fel D1 (Felis catus, UniProt P30438); assay: ELISA binding assay of anti-Fel d1 VHH clones on Fel D1 epitopes; parameters: species or system cat; details: Epitope Recognized AKMTEEDKENALS (SEQ ID NO: 60)
T2 construct: made in house; host or cells: chemically synthesized peptides
Experimental: 2 microgram per milliliter (μg/mL) target antigen is coated in a 96-well plate and ELISA assay is performed after incubation with candidate VHHs. The binding EC50 of each clone is calculated using Prism GraphPad. The positive control antibody is involved as an internal control.
Four distinct epitopes of Fel D1 were selected to be used for further identification. Peptides were synthesized for the four epitopes for VHH identification.
Isolated VHH clones were further validated by performing an ELISA assay as described in Example 1. Binding results are shown in FIG. 15B-15D for the epitope of SEQ ID NO: 61. Binding results are shown in FIG. 16 for the epitope of SEQ ID NO: 59. Binding results are shown in FIG. 17A-17E for the epitope of SEQ ID NO: 60. Binding results are shown in FIG. 18 for the epitope of SEQ ID NO: 58.

[15] = Thermostability (Tm, Tonset, Tagg) by Nanotemper DSF; assay type: physicochemical; parameters: key to Tm2 / Tagg / Tm1 / Tm / Tm3 / Tonset / Tonset ø (mean) / Tagg ø (mean): temperatures in °C; details: for Tm: single melting point
Summary of the method: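 Isolated VHH clones were heated from 20 °C to 95 °C at 1 °C/min using DSF. Tm, Tonset and Tagg were derived from the thermal curves. Where several melting transitions occurred, each was reported in order (Tm1, Tm2, etc.).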

[16] = Average of two replicates, anti-Fel d1 VHH
[17] = Average of two replicates, anti-Fel d1 VHH, in °C (unit assumed)
[18] = Replicate 1, in °C (unit assumed)
[19] = Replicate 2, in °C (unit assumed)
[20] = anti-Fel d1 VHH, in °C (unit assumed)

Molecule | OD450 [1] [OD450] | OD450 [2] [OD450] | OD450 [3] [OD450] | OD450 [4] [OD450] | OD450 [5] [OD450] | OD450 [6] [OD450] | OD450 [7] [OD450] | OD450 [8] [OD450] | OD450 [9] [OD450] | OD450 [10] [OD450] | OD450 [11] [OD450] | OD450 [12] [OD450] | OD450 [13] [OD450] | OD450 [14] [OD450] | EC50 (Fel D1) [µg/mL] | Tagg ø (mean) [15, 16] | Tonset ø (mean) [15, 16] | Tagg ([15]; Replicate 1) | Tonset ([15]; Replicate 1) | Tagg ([15]; Replicate 2) | further results
HSGPECG (also: biotinylated, site not given here, 7-amino acid peptide from a phage display library) [SDAB22110-2-D3] | 1.36 | 0.906 | 0.468 | 2.16 | 3.57 | 4.13 | 0.866 | 2.25 | 2.77 | 3.55 | 0.463 | 1.37 | 4.1 | 2.88 | – | – | – | – | – | – | –
GIHMALM (also: biotinylated, site not given here, 7-amino acid peptide from a phage display library) [SDAB22110-2-B2] | 0.071 | 0.066 | 0.07 | 0.089 | 0.289 | 0.537 | 0.078 | 0.089 | 0.132 | 0.275 | 0.061 | 0.083 | 0.536 | 0.136 | – | – | – | – | – | – | –
SDAB22110-4-3-E05: anti-Fel d1 VHH clone, SEQ ID NO: 55 (protein) VHH: QVQLVESGGGLVQPGGSLRLSCVGSGFTFSQYAMRWYRQVPGKARELVAAISRSGDFMYYADSVKGRFTISRDNVKSAVILQMNSLKPEDTAVYYCYGQATISDTLWGQGTQVTVSS | – | – | – | – | – | – | – | – | – | – | – | – | – | – | 1.719 | 40.93 | 35.67 | 40.93 | 35.61 | 40.93 | Tm ø (mean), first melting point (Tm1) [15, 17]: 46.83; Tm, first melting point (Tm1) [15, 18]: 47.02; Tonset ([15]; Replicate 2): 35.73; Tm, first melting point (Tm1) [15, 19]: 46.64; Tagg ([15]; anti-Fel d1 VHH): 31.74; aggregates ([15]; anti-Fel d1 VHH): Possible; Tm1 ([15]; anti-Fel d1 VHH, first melting point, in °C (unit assumed)): 37.85; Tm2 ([15]; anti-Fel d1 VHH, second melting point, in °C (unit assumed)): 47.65; Tm3 ([15]; anti-Fel d1 VHH, third melting point, in °C (unit assumed)): 62.39
SDAB22110-4-3-G08: anti-Fel d1 VHH clone, SEQ ID NO: 56 (protein) VHH: DVQLVESGGGLVQPGGSLRLSCAASGFTFSLYYMSWYRQVPGKERELVATITSGTHATTYADSVKGRFTISRDNAKNTVSLQMNSLKREDTGVYYCKRTNAGQDPWGQGTQVTVSS | – | – | – | – | – | – | – | – | – | – | – | – | – | – | 2.215 | 31.74 | 27.92 | 31.71 | 27.93 | 31.77 | Tm ø (mean), first melting point (Tm1) [15, 16]: 37.85,; Tm ø (mean), second melting point (Tm2) [15, 17]: 47.65; Tm ø (mean), third melting point (Tm3) [15, 17]: 62.92; Tm, first melting point (Tm1) ([15]; Replicate 1): 37.77,; Tm, second melting point (Tm2) [15, 18]: 47.76; Tm, third melting point (Tm3) [15, 18]: 61.85; Tm, first melting point (Tm1) ([15]; Replicate 2): 37.92,; Tonset ([15]; Replicate 2): 27.92; Tm, second melting point (Tm2) [15, 19]: 47.53; Tm, third melting point (Tm3) [15, 19]: 62.92; Tagg ([15]; anti-Fel d1 VHH): 42.29; Tm [15, 20]: 58.58
LTGYGMS (also: biotinylated, site not given here, 7-amino acid peptide from a phage display library) [SDAB22110-2-D9] | 0.078 | 0.068 | 0.061 | 0.095 | 0.357 | 0.771 | 0.067 | 0.102 | 0.154 | 0.374 | 0.059 | 0.068 | 0.751 | 0.154 | – | – | – | – | – | – | –
YPTWAYR (also: biotinylated, site not given here, 7-amino acid peptide from a phage display library) [SDAB22110-2-C3] | 0.066 | 0.065 | 0.058 | 0.104 | 0.376 | 0.748 | 0.065 | 0.102 | 0.162 | 0.346 | 0.057 | 0.072 | 0.684 | 0.191 | – | – | – | – | – | – | –
AVVSFYP (also: biotinylated, site not given here, 7-amino acid peptide from a phage display library) [SDAB22110-2-F1] | 0.073 | 0.075 | 0.079 | 0.131 | 0.516 | 0.805 | 0.073 | 0.125 | 0.221 | 0.479 | 0.066 | 0.076 | 0.938 | 0.209 | – | – | – | – | – | – | –
SDAB22110-4-3-B02: anti-Fel d1 VHH clone, SEQ ID NO: 54 (protein) VHH: QVQLVESGGGLVQPGGSLRLSCVASGFTFSFYTMEWYRQAAGKQRELVAGLTASGTTHYADSAKGRFTISRDNAWNTVFLQMNGLKPEDTAVYYCNAYSGYRDYWGQGTQVTVSL | – | – | – | – | – | – | – | – | – | – | – | – | – | – | 12.200 | 35.68 | 33.78 | 35.55 | 33.78 | 35.82 | Tm ø (mean), first melting point (Tm1) [15, 17]: 42.43; Tm, first melting point (Tm1) [15, 18]: 42.52; Tonset ([15]; Replicate 2): 33.78; Tm, first melting point (Tm1) [15, 19]: 42.34; Tagg ([15]; anti-Fel d1 VHH): 40.93; Tm [15, 20]: 46.83
SDAB22110-4-3-H02: anti-Fel d1 VHH clone, SEQ ID NO: 57 (protein) VHH: QLQLVESGGGLVQPGGSLRLSCEASGFTFKYYTMSWYRQAPGKERELVATITNGDRTNYADSVKGRFTISRDNAKNTLYLQMNSLKPYDTAVYYCNRHLPLLQIWGQGTQVTVSS | – | – | – | – | – | – | – | – | – | – | – | – | – | – | 12.940 | 42.29 | 47.54 | 42.24 | 47.33 | 42.35 | Tm ø (mean), first melting point (Tm1) [15, 17]: 58.58; Tm, first melting point (Tm1) [15, 18]: 58.60; Tonset ([15]; Replicate 2): 47.76; Tm, first melting point (Tm1) [15, 19]: 58.57; Tagg ([15]; anti-Fel d1 VHH): 42.30; Tm ([15]; anti-Fel d1 VHH): 47.50
